Test results published in US20260265800A1, “NEW FUCOSYLTRANSFERASES FOR IN VIVO SYNTHESIS OF LNFP-III” (DSM IP Assets B.V., priority 2022, published 2026).

B1: Parm1: α-1,3-fucosyltransferase from Parabacteroides merdae, GenBank WP_129943149.1, SEQ ID NO: 2 (protein, listed as Parabacteroides merdae)
chain: MKHETPVLSFIIPIYNVELYLPACLESVLHLPLTNFEIILIDDGSTDNSGRIADKYAENYSHIHVIHQTNAGLSATRNRGVELAEGNYIAFLDSDDWLIGDQIVDIYLQTSQANADMGMGNSLFCYPDGSNGNPFAPIPQNLIGQTIDGKYCFTELMKQNVYPPMVYNYIYRREWLLSHQLRFESVLHEDELWTPIALCYARRIVVTNIDFYGYRQREGSIMTSLRREKRIHDLFFIADRLIRLAENYRFDSDDKNLKSQLYVRSYLLYKIAFSSLAHIHDTRFILPTHHLYQLFAIKNKLTADARNTCINQYKTAKQGLKSYLKWRNSYWIRKLTYEISPETKLILIFNTMWNKPLDIPIQKIPANCIITTDRRFLSTADFVVFHLPDLSNELEEDLDKPEGQKWVAWSLECEENYHFLKDPEFMEVFDYKMSYHQDADIVYPYYRYEYRKELILMPEFSFHEKKDICMMISSPFNQSGRQEYLQELMQYISIDSYGKLFNNCKLEKDSGQDSKMELYRQYKFVIAFENSRANDYVTEKFYDPLLAGAVPIYLGAPNIETFAPGENCSVDIRNFSSPKELAAFLIEACKNEKIYNKFLQWKKEPLKPEFMKKIEAQRVHPFIRLCHLLHLPPPTSRYDGARKKNAHRS
B2: Plac_wt: promoter sequence, SEQ ID NO: 37 (nucleic acid, listed as Escherichia coli)
DNA: TGTGAGTTAGCTCACTCATTAGGCACCCCAGGCTTTACACTTTATGCTTCCGGCTCGTATGTTGTGTGGAATTGTGAGCGGATAACAATTTCACACAGGAAACAGCT
modifications: expressed or natural sequence
B3: PglpF: promoter sequence, SEQ ID NO: 28; positive reference of the LacZ assay (nucleic acid, listed as Escherichia coli)
DNA: GCGGCACGCCTTGCAGATTACGGTTTGCCACACTTTTCATCCTTCTCCTGGTGACATAATCCACATCAATCGAAAATGTTAATAAATTTGTTGCGCGAATGATCTAACAAACATGCATCATGTACAATCAGATGGAATAAATGGCGCGATAACGCTCATTTTATGACGAGGCACACACATTTTAAGTTCGATATTTCTCGTTTTTGCTCGTTAACGATAAGTTTACAGCATGCCTACAAGCATCGTGGAGGTCCGTGACTTTCACGCATACAACAAACATTAACCAAGGAGGAAACAGCT

What was measured:
[1] = system: LNnT; assay: Deep well assay: HMO profile of LNnT-producing strains expressing α-1,3-fucosyltransferases (HPLC); type: cell-based, Escherichia coli
Method: Deep Well Assays in the current examples were performed as originally described to Lv et al (Bioprocess Biosyst Eng 20 (2016) 39:1737-1747) and optimized for the purposes of the current invention. More specifically, the strains disclosed in the present example were screened in 96 deep well plates using a 4-day protocol. During the first 24 hours, precultures were grown to high densities (OD600 up to 5) and subsequently transferred to a medium that allowed induction of gene expression and product formation.
More specifically, during day 1, fresh precultures were prepared using a basal minimal medium (BMM) (pH 7.0) supplemented with magnesium sulphate (0.12 g/L), thiamine (0.004 g/L) and glucose (5.5 g/L). Basal Minimal medium had the following composition: NaOH (1 g/L), KOH (2.5 g/L), KHzPO4 (7 g/L), NH&HzPO4 (7 g/L), Citric acid (0.5 g/l), trace mineral solution (5 mL/L). The trace mineral stock solution contained; ZnSO~*7H~O 0.82 g/L, Citric acid 20 g/L, Mn$04*H&O 0.98 g/L, FeSO4*7H&O 3.925 g/L, CuSO4*5H~O 0.2 g/L. The pH of the Basal Minimal Medium was adjusted to 7.0 with 5 N NaOH and autoclaved. The precultures were incubated for 24 hours at 34° C. and 1000 rpm shaking and then further transferred to 0.75 ml of a new BMM (pH 7,5) to start the main culture. The new BMM was supplemented with magnesium sulphate (0.12 g/L), thiamine (0.02 g/L), a bolus of glucose solution (0.1-0.15 g/L) and a bolus of lactose solution (5-20 g/L) Moreover, a 20% stock solution of sucrose (40-45 g/L) or maltodextrin (19-20 g/L) was provided as carbon source, accompanied by the addition of a specific hydrolytic enzyme, sucrose hydrolase or glycoamylase, respectively, so that glucose was released at a rate suitable for carbon-limited growth and similar to that of a typical fed-batch fermentation process. The main cultures were incubated for 72 hours at 28° C. and 1000 rpm shaking. For the analysis of total broth, the 96 well plates were boiled at 100° C., subsequently centrifuged, and finally the supernatants were analysed by HPLC.
Genetically modified cells expressing individual α-1,3-fucosyltransferase enzymes were screened for their ability to produce the fucosylated HMO LNFP-III.
Genetically modified strains expressing the six individual α-1,3-fucosyltransferases (table 5) were generated as described in the “Method” section. The cells were screened in the deep well assay setup as described in the “Method” section.
The molar content of individual HMOs produced by the strains was measured by HPLC.
The results of the LNFP-III producing cells are shown in table 7 as the fraction of the total molar HMO content (in percentage, %) produced by each strain.

[2] = system: β-galactosidase activity; assay: LacZ assay of promoter strength; type: cell-based; conditions: LacZ assay at 30° C.; Plac induced with IPTG
Method: Increasing the promoter strength driving the expression of the desired enzyme may be one way of doing this. The strength of a promoter can be assessed using a lacZ enzyme assay where β-galactosidase activity is assayed as described previously (see e.g., Miller J. H. Experiments in molecular genetics, Cold spring Harbor Laboratory Press, NY, 1972). Briefly the cells are diluted in Z-buffer and permeabilized with sodium dodecyl sulfate (0.1%) and chloroform. The LacZ assay is performed at 30° C. Samples are preheated, the assay initiated by addition of 200 μl ortho-nitro-phenyl-β-galactosidase (4 mg/ml) and stopped by addition of 500 μl of 1 M Na2CO3 when the sample had turned slightly yellow. The release of ortho-nitrophenol is subsequently determined as the change in optical density at 420 nm. The specific activities are reported in Miller Units (MU) [A420/(min*ml*A600)]. A regulatory element with an activity above 10,000 MU is considered strong and a regulatory element with an activity below 3,000 MU is considered weak, what is in between has intermediate strength. An example of a strong regulatory element is the PglpF promoter with an activity of approximately 14.000 MU and an example of a weak promoter is Plac which when induced with IPTG has an activity of approximately 2300 MU. […]

[3] = system: β-galactosidase activity; conditions: LacZ assay, cited from earlier work; for % Activity relative to PglpF: PglpF as positive reference, a range indicates results from multiple assays
[4] = two genomic copies and high copy plasmid (pUC57-Parm1-PglpF)

Molecule	LNnT, % of total HMO molar (mM) content produced by each strain ([1]; FT copy nr as in table 7) [%]	amount of LNnT produced, % of the total HMO content ([1]; two genomic copies) [%]	relative amount of LNFP-III produced, % of the total HMO content ([1]; two genomic copies) [%]	amount of LNnT produced, % of the total HMO content [1, 4] [%]	relative amount of LNFP-III produced, % of the total HMO content [1, 4] [%]	promoter activity in Miller Units [2]	% Activity relative to PglpF [3]	Strength [3]
B1	21	14	81	5	86			
B2						approximately 2300 MU	15-28%	low (a regulatory element with an activity below 3,000 MU is considered weak)
B3						approximately 14.000 MU	100%	high (A regulatory element with an activity above 10,000 MU is considered strong)
